# Test results taken from the supplement of paper PMC10567573.
# ± gives the standard deviation.
# Assay: protein stability index of a GFP-peptide fusion (GPS, HEK-293T) (PSI 1-6); higher = more stable
# Conditions: c terminus: a fixed tail appended
# 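Also: 24-mer peptide tiles fused after GFP, lentivirally expressed, FACS-sorted into six equal bins by GFP/DsRed ratio, decoded by Illumina sequencing, PSI is the read-weighted mean bin number.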
Sequence,protein stability index (treatment: DMSO),"protein stability index (treatment: MLN4924 1 uM, 8 h)"
IAKYSDGASKAAGVFGFFATIVFA [CMTM3],2.86 ± 0.57,2.74 ± 0.41
DSDIPEIPPSSDRTPEILKKALSG [CDS1],5.2 ± 0.21,5.39 ± 0.19
KSNSYPHQLYTSSSHHSHSYIGLP [KMT2E],3.03 ± 0.17,3.24 ± 0.26
YVDIHTGLSGSGVAFVCAFSEALA [PYCR3],2.72 ± 1.2,2.4 ± 1
ASFDVCESVDEAGGSGPAGLRAST [RHOBTB2],5.24 ± 0.21,5.02 ± 0.15
LIPKTWYSAEQFCVSRNSHLTSVT [CD207],2.17 ± 0.32,2.19 ± 0.28
NHHSPGGSSDASGSYSSTMNGHQN [ESRRG],4.86 ± 0.23,5.05 ± 0.17
ALPKATILDLSCNKLTTLPSDFCG [LRRC59],2.82 ± 0.16,3.02 ± 0.28
APKKELINIKGISEAKADKILAEA [RAD51],4.05 ± 0.25,4.49 ± 0.46
KALSRKSTSFRVYIMAFDIKSEDM [FBXO33],2.74 ± 0.54,2.6 ± 0.55
LSPEVLNKQGHGCESDIWALGCVM [PLK2],2.09 ± 0.15,2.14 ± 0.29
ALWKHLKSMHREELEKSGHGQAGQ [ZBED2],2.98 ± 0.38,3.48 ± 0.43
VLPPIHAYGNRTECRNPQELESIR [FEM1B],4.14 ± 0.28,4 ± 0.21
MDSDFSHAFQKELTCVICLNYLVD [TRIM43],2.6 ± 0.39,2.53 ± 0.44
KGYTPLHAAASNGQINVVKHLLNL [ANKRD44],2.67 ± 0.21,2.69 ± 0.25
PYTPPATSHRRVTDVRGLEEFLSA [PLEKHN1],3.98 ± 0.19,3.91 ± 0.35
QVTASDSGDPPLSSNVSLSLFVLD [PCDHGA10],3.31 ± 0.4,3.48 ± 0.29
RVGQWVRMENVTVLGEDVIVNDEL [GMPPB],4.01 ± 0.066,4.07 ± 0.24
EEANADLEVKIHDWYQKQTPTSPE [KRT15],5.33 ± 0.23,5.29 ± 0.16
ELVVIIGWAKHIPGFSTLSLADQM [ESRRG],3.19 ± 0.31,2.67 ± 0.77
EHPGGEEVLREQAGGDATENFEDV [CYB5A],5.47 ± 0.2,5.54 ± 0.24
VGFMWRQRGRVISLWERLEFVNGW [MCOLN1],2.59 ± 0.65,3.05 ± 0.62
LIVTSLLLLPGLNQHGIILKYIGM [ARL6IP1],–,3.15 ± 0.81

Sequence,protein stability index (treatment: DMSO),"protein stability index (treatment: MLN4924 1 uM, 8 h)"
SQPPKKKPKTTNIELQGVPNDEVH [RBBP5],5.32 ± 0.2,5.28 ± 0.14
CTAGNFMECQPESSISHRFHKDCA [EHMT1],2.96 ± 0.25,3.03 ± 0.27
IIALIALSVGQYNCPGQYTFSMPS [CD69],3.51 ± 0.45,3.3 ± 0.48
GLAGYLSGYDGTFLFQKPGDKYEH [POMT2],2.62 ± 0.7,2.91 ± 0.6
PHCSDLMPSGSEEKILRELSEEEE [KCNA4],5.64 ± 0.23,5.56 ± 0.24
IEMFKSITHSTVGSKGEKDLGASS [EHMT1],4.23 ± 0.15,3.85 ± 0.36
ESDSRKVAEETPDGAPALCPSPEA [PRKX],5.69 ± 0.17,5.58 ± 0.3
PLLGVKGDGKSKKKQAGRPKGSKG [RBBP5],4.88 ± 0.15,4.88 ± 0.35
PAFVKFAYVAEREDELSLVKGSRV [NCK2],3.09 ± 0.34,3.08 ± 0.39
TECEPSELFQLQTYSLPPFLKAVL [CDS1],2.65 ± 0.22,2.56 ± 0.22
TLQDLVFDECGITDDQLLALLPSL [PRAME],2.84 ± 0.26,3.03 ± 0.34
QRRSRQNPQSPPQDSSVTSKRNIK [HDAC6],5.26 ± 0.51,5.27 ± 0.31
VSQLYPESIVPIPSSNEEIRLVDD [INTS4],4.92 ± 0.18,4.88 ± 0.081
LGCNRQSWCLKRYDLEYWAFHDGQ [TRIM14],2.5 ± 0.34,2.34 ± 0.38
MYFSSLFPYVVLACFLVRGLLLRG [SLC6A17],2.9 ± 0.65,2.65 ± 0.72
NTAKSTSRVTAFLDDLSQKLKPLG [NLN],3.42 ± 0.15,3.35 ± 0.044
LPPPSALKKGSKEKQADFLDKQMS [NFE2L1],4.89 ± 0.24,4.91 ± 0.29
RTPSAFPQTPAAPPATLGEGSADT [EHMT1],5.3 ± 0.21,5.25 ± 0.12
LSSVECLDYTADEDGVWYSVAPMN [KLHL12],3.59 ± 0.19,3.74 ± 0.48
KSDKALMMLFNDGTFQVNFYHDHT [PLK2],1.86 ± 0.32,2.25 ± 0.14
HQTLKCSALATQYMHCVNHAKQSM [CHCHD3],2.1 ± 0.22,2.29 ± 0.17
GSTNLTGLFFPPQLNGTANDTAGP [NFE2L1],3.93 ± 0.14,4 ± 0.25
VVGDNAVGKTRLICARACNTTLTQ [RHOBTB1],2.69 ± 0.32,2.73 ± 0.38

Sequence,protein stability index (treatment: DMSO),"protein stability index (treatment: MLN4924 1 uM, 8 h)"
HLARHAVACFLTRGDLWISWEEGM [CRY1],3.01 ± 0.72,2.98 ± 0.47
VRLHDSISEEGHHYLIFDLVTGGE [CAMK2A],2.23 ± 0.4,2.26 ± 0.18
SQGEVEKLIKCDEIQVDSEEPVFE [KLHL12],5.23 ± 0.4,5.47 ± 0.25
DPGLWSRLCRLAGASSPAAYDEAL [ZSWIM9],2.82 ± 0.15,2.78 ± 0.24
HVTHWMGQPFNSDDRNTACHHGLV [DLC1],2.51 ± 0.28,2.92 ± 0.31
HAAAVNGDKGALQRLIVGNSALKD [INVS],4.29 ± 0.25,4.29 ± 0.32
RLRALGERHTMDLTVEGFQSWMWR [TMEM120A],2.38 ± 0.27,2.58 ± 0.49
TFQNSVFVATFLRYAVVLNATWLV [SCD],3.01 ± 0.34,3.43 ± 0.43
APGSSVEYQCQNLYQLEGNNQITC [CFHR2],3.88 ± 0.12,3.88 ± 0.17
RVQGVLRGRAREREQLQAEASERF [HES6],4.39 ± 0.32,4.48 ± 0.25
GEPLALPLDAGEYCVPRGNRRRFR [BEX1],4.8 ± 0.27,4.99 ± 0.25
VFHLPFYSSNQLHHFFCDIAPVLK [OR10K2],2.23 ± 0.48,2.12 ± 0.15
GSSPKSKTKWTKEDGHRTSTSAVP [ADD1],4.96 ± 0.17,4.81 ± 0.25
DARDEELEKDTMDNWDEKKLEEVV [ZC3H15],5.45 ± 0.4,5.21 ± 0.25
ILLQEIPIRSISLRSCYFSDPDCS [FBXO39],2.55 ± 0.54,2.91 ± 0.72
GALYGITLIPTCKFYTWLWGVFYY [SCD],2.39 ± 0.41,–
EELEEALEVERQENEQRRLFIQKE [MNAT1],5.05 ± 0.24,5 ± 0.16
QYAIISEAWRLVEEGIVSPSDLDL [CRYL1],3.16 ± 0.19,3.21 ± 0.34
GAIAQSSIYPMEVLKTRMALRKTG [SLC25A25],3.54 ± 0.11,3.74 ± 0.28
SMSSRLSIYDNVPGSILYSSSGDL [DLC1],3.24 ± 0.089,3.13 ± 0.22
GYVPSNYVERKNSLKKGSLVKNLK [NCK2],3.96 ± 0.16,3.89 ± 0.19
ETPMAPVPLGPLGETYCEEHGEKI [TRIM15],5.39 ± 0.2,5.38 ± 0.12
LLAAGANVHATTATGDTALTYACE [ANKRD17],4.13 ± 0.2,3.9 ± 0.23

Sequence,protein stability index (treatment: DMSO),"protein stability index (treatment: MLN4924 1 uM, 8 h)"
FVSRYKLMRHMATHSPQKSHQCAH [PLAGL1],2.7 ± 0.37,2.55 ± 0.38
QPVMQSDRTAIRSDTTHLVTLGGV [KLHL13],3.88 ± 0.28,3.83 ± 0.35
RRNPELQEELQIQAAVAAGDVHTV [ASB7],4.85 ± 0.18,4.82 ± 0.16
RSIPDTQLEQVIESQKANQCAVLI [ACSBG2],3.54 ± 0.14,3.67 ± 0.47
AKYEYMEEQVILTEKDLLEDGFGE [SAT1],4.02 ± 0.4,4.06 ± 0.37
SSEDYRQLELVILQSEPHRAGVQW [KCNK9],2.41 ± 0.19,2.38 ± 0.29
PDVLRTKPAFIGKTNLDGMITVQL [PTPRD],2.52 ± 0.53,2.13 ± 0.57
LRYSVVEESEPGTLVGNVAQDLGL [PCDHGC5],3.94 ± 0.13,3.86 ± 0.26
RRSRDPGYDHLWDETLSSSHQKCP [PLEKHN1],3.81 ± 0.32,4.04 ± 0.13
MQHSFPEPGRLYLDLILAILALEL [TMEM192],2.62 ± 0.41,2.45 ± 0.36
ETFSTLKNWVKELRQHGPPNIVVA [RAB22A],2.4 ± 0.69,2.36 ± 0.14
SLFKLKPLSNKTATDDTGGKDPRN [PLD5],4.44 ± 0.54,4.65 ± 0.11
EDPDYYGQEIWSREPYYARPEPEL [CPXM2],4.38 ± 0.11,–
VNPWIIIGGVATVVCQPNEFIMPD [SEPHS2],2.67 ± 0.38,3.05 ± 0.81
FACPSQALFFKNIMNIIDIVSILP [KCNA4],3.02 ± 0.073,2.85 ± 0.27
KYPGPQAEGDSEGLSQGLVDREKG [CHGA],5.32 ± 0.3,5.36 ± 0.12
RKKSGDLKKAKVQVERMREVNSRC [FBXO34],4.15 ± 0.17,4.38 ± 0.42
LLLLFGVAGGLVACRVTELQQQPL [LRRC59],2.77 ± 0.2,3.46 ± 0.55
RTPEILKKALSGLSSRWKNWWIRG [CDS1],2.49 ± 0.86,2.26 ± 0.73
AVGGRNAAGELPTVECYNPRTNEW [KLHL13],4.2 ± 0.13,4.33 ± 0.13
RIKIRQCIGLQNLKLLDELPIAKV [ASB7],2.12 ± 0.31,2.19 ± 0.49
